Measurements: publication PMC12172022, “Overexpression of TaPIP1A enhances drought and salt stress tolerance in Arabidopsis: cross-species conservation and molecular dynamics”

Target: MBP-TaWRKY71 (Triticum aestivum (wheat) cv. KN9204, UniProt A0A3S6GV84 1-300)
Test: EMSA; complex signal weakened by 200-fold unlabeled competitor; LightShift chemiluminescent EMSA, 6% gel (printed as SDS-PAGE); 25 min at room temperature; probe annealed in 10 mM Tris-HCl pH 7.6, 1 mM EDTA, 50 mM NaCl; binding buffer not stated
Details: protein: recombinant; tags: N-terminal MBP (pMALC2X); label: 5' biotin; blunt

Sequence of MBP-TaWRKY71 (A0A3S6GV84 entry or part of it): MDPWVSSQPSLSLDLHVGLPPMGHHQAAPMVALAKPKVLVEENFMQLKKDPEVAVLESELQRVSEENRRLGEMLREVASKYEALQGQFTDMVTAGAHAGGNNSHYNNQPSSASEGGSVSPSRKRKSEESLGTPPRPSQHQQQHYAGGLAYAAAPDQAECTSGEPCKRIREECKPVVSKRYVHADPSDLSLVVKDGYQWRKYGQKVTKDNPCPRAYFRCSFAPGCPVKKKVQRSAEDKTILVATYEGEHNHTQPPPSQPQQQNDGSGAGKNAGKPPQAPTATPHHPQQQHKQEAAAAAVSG

B1: P-W probe (TaPIP1A promoter) (dsDNA)
DNA 1: CATGACATGACAGGTGAGGTGACACCACAAG
DNA 2: CTTGTGGTGTCACCTCACCTGTCATGTCATG
B1: binds.
